Measured values as given in patent US20190338048A1.
Where two headings read alike, the source gives them in different places. Blank lines part the entries; values can stand above or below the substance they belong to.

Experiments:
[1] = target: CAT-2200 lambda light chain E124Q_T131R; assay: LCCA, SPR
[2] = target: CAT-2200 lambda light chain E124Q_T131K; assay: LCCA, SPR
[3] = target: CAT-2200 lambda light chain E124Q_T131R; assay: LCCA, SPR; remark: listed apart in the source
[4] = target: CAT-2200 lambda light chain E124Q_T131K; assay: LCCA, SPR; remark: listed apart in the source
[5] = target: CAT-2200 lambda light chain E124Q_T131R; assay: LCCA, SPR; remark: listed apart in the source
[6] = target: CAT-2200 lambda light chain V133D_Y178T; assay: LCCA, SPR
[7] = target: CAT-2200 lambda light chain V133D_Y178T; assay: LCCA, SPR; remark: listed apart in the source
[8] = target: CAT-2200 lambda light chain T131S_V133D_Y178T; assay: LCCA, SPR
[9] = target: CAT-2200 lambda light chain V133D_Y178T; assay: LCCA, SPR; remark: listed apart in the source
[10] = target: Pertuzumab kappa light chain S176K_T178K; assay: LCCA, SPR
[11] = target: Pertuzumab kappa light chain S176K_T178R; assay: LCCA, SPR
[12] = target: Pertuzumab kappa light chain S176K_T178R (L2), HA-tagged; assay: LCCA, SPR of light-chain tags
[13] = target: Pertuzumab kappa light chain S176K_T178L (L2), HA-tagged; assay: LCCA, SPR of light-chain tags
[14] = target: Pertuzumab kappa light chain S176K_T178K (L2), HA-tagged; assay: LCCA, SPR of light-chain tags
[15] = target: Pertuzumab kappa light chain S176K_T178R (L2), HA-tagged; assay: LCCA, SPR of light-chain tags; remark: listed apart in the source
[16] = target: Pertuzumab kappa light chain S176K_T178L (L2), HA-tagged; assay: LCCA, SPR of light-chain tags; remark: listed apart in the source
[17] = target: Pertuzumab kappa light chain S176K_T178K (L2), HA-tagged; assay: LCCA, SPR of light-chain tags; remark: listed apart in the source
[18] = target: Pertuzumab kappa light chain S176K_T178R (L2), HA-tagged; assay: LCCA, SPR of light-chain tags; remark: listed apart in the source
[19] = target: Pertuzumab kappa light chain S176K_T178L (L2), HA-tagged; assay: LCCA, SPR of light-chain tags; remark: listed apart in the source
[20] = target: Pertuzumab kappa light chain S176K_T178K (L2), HA-tagged; assay: LCCA, SPR of light-chain tags; remark: listed apart in the source
[21] = target: Pertuzumab kappa light chain S176K_T178R (L2), HA-tagged; assay: LCCA, SPR of light-chain tags; remark: listed apart in the source
[22] = target: Pertuzumab kappa light chain S176K_T178L (L2), HA-tagged; assay: LCCA, SPR of light-chain tags; remark: listed apart in the source
[23] = target: Pertuzumab kappa light chain S176K_T178K (L2), HA-tagged; assay: LCCA, SPR of light-chain tags; remark: listed apart in the source
[24] = target: Pertuzumab kappa light chain S176K_T178R (L2), HA-tagged; assay: LCCA, SPR of light-chain tags; remark: listed apart in the source
[25] = target: Pertuzumab kappa light chain S176K_T178K (L2), HA-tagged; assay: LCCA, SPR of light-chain tags; remark: listed apart in the source
[26] = target: Pertuzumab kappa light chain V133G_S176R (L2), HA-tagged; assay: LCCA, SPR of light-chain tags
[27] = target: Pertuzumab kappa light chain V133A_S176K (L2), HA-tagged; assay: LCCA, SPR of light-chain tags
[28] = target: Pertuzumab kappa light chain V133G_S176R (L2), HA-tagged; assay: LCCA, SPR of light-chain tags; remark: listed apart in the source
[29] = target: Pertuzumab kappa light chain V133A_S176K (L2), HA-tagged; assay: LCCA, SPR of light-chain tags; remark: listed apart in the source
[30] = target: Pertuzumab kappa light chain S131R_V133G_S176R (L2), HA-tagged; assay: LCCA, SPR of light-chain tags
[31] = target: Pertuzumab kappa light chain S131K_V133G_S176R (L2), HA-tagged; assay: LCCA, SPR of light-chain tags
[32] = target: Pertuzumab kappa light chain S131R_V133G_S176R (L2), HA-tagged; assay: LCCA, SPR of light-chain tags; remark: listed apart in the source
[33] = target: Pertuzumab kappa light chain S131K_V133G_S176R (L2), HA-tagged; assay: LCCA, SPR of light-chain tags; remark: listed apart in the source
[34] = target: Pertuzumab kappa light chain S131R_V133G_S176R (L2), HA-tagged; assay: LCCA, SPR of light-chain tags; remark: listed apart in the source
[35] = target: Pertuzumab kappa light chain S131K_V133G_S176R (L2), HA-tagged; assay: LCCA, SPR of light-chain tags; remark: listed apart in the source

H1L1:H1L2 normalized median scalar value ln(r1/f1) [1]: 0.28 | H1L1:H1L2 normalized median scalar value ln(r1/f1) [2]: -0.04 | H1L1:H1L2 normalized median scalar value ln(r1/f1) [3]: 2.87 | H1L1:H1L2 normalized median scalar value ln(r1/f1) [4]: 3.04 | H1L1:H1L2 normalized median scalar value ln(r1/f1) [5]: 1.65
Substance: CAT-2200 Fab heavy chain L143E_K145T_Q179E

H2L2:H2L1 normalized median ratio [6]: 16% | H2L2:H2L1 normalized median ratio [10]: 84% | H2L2:H2L1 normalized median scalar value ln(r1/f1) [10]: 1.68 | H2L2:H2L1 normalized median scalar value ln(r1/f1) [11]: 1.5
Substance: Pertuzumab Fab heavy chain K145T_V177D_S188D

H2L2:H2L1 normalized median scalar value ln(r1/f1) [12]: 1.64 | H2L2:H2L1 normalized median scalar value ln(r1/f1) [13]: 2.29 | H2L2:H2L1 normalized median scalar value ln(r1/f1) [14]: 1.83 | H2L2:H2L1 normalized median scalar value ln(r1/f1) [15]: 1.59 | H2L2:H2L1 normalized median scalar value ln(r1/f1) [16]: 1.59 | H2L2:H2L1 normalized median scalar value ln(r1/f1) [17]: 1.93 | H2L2:H2L1 normalized median scalar value ln(r1/f1) [18]: 2.3 | H2L2:H2L1 normalized median scalar value ln(r1/f1) [19]: 2.11 | H2L2:H2L1 normalized median scalar value ln(r1/f1) [20]: 2.4 | H2L2:H2L1 normalized median scalar value ln(r1/f1) [21]: 1.9 | H2L2:H2L1 normalized median scalar value ln(r1/f1) [22]: 1.52 | H2L2:H2L1 normalized median scalar value ln(r1/f1) [23]: 1.95 | H2L2:H2L1 normalized median scalar value ln(r1/f1) [24]: 1.75 | H2L2:H2L1 normalized median scalar value ln(r1/f1) [25]: 1.09
Substance: Pertuzumab Fab heavy chain K145T_V177D_S188D (H2)

The remaining lines, values behind:

Substance: CAT-2200 Fab heavy chain S186K_S188T
H1L1:H1L2 normalized median scalar value ln(r1/f1) [6]: 0.91 | H1L1:H1L2 normalized median scalar value ln(r1/f1) [7]: 1.84 | H1L1:H1L2 normalized median scalar value ln(r1/f1) [8]: -0.34 | H1L1:H1L2 normalized median scalar value ln(r1/f1) [9]: 0.54

Substance: Pertuzumab Fab heavy chain L124E (H2)
H2L2:H2L1 normalized median scalar value ln(r1/f1) [26]: 0.25 | H2L2:H2L1 normalized median scalar value ln(r1/f1) [27]: -0.15 | H2L2:H2L1 normalized median scalar value ln(r1/f1) [28]: 2.32 | H2L2:H2L1 normalized median scalar value ln(r1/f1) [29]: 1.69

Substance: Pertuzumab Fab heavy chain L124E_K145T_Q179E (H2)
H2L2:H2L1 normalized median scalar value ln(r1/f1) [30]: 2.85 | H2L2:H2L1 normalized median scalar value ln(r1/f1) [31]: 2.94 | H2L2:H2L1 normalized median scalar value ln(r1/f1) [32]: 2.51 | H2L2:H2L1 normalized median scalar value ln(r1/f1) [33]: 2.21 | H2L2:H2L1 normalized median scalar value ln(r1/f1) [34]: 2.42 | H2L2:H2L1 normalized median scalar value ln(r1/f1) [35]: 2.41
